From publication PMC8215223

Biological target: GM130 (UniProt Q08379)
Test: co-IP of GM130 with GFP-HOOK3
Conditions: reference: wild type

binding against the reference (sites S238)	binding against the reference (sites S707)	Substance
weaker		HOOK3 (from UniProt Q86VS8) S238A
	weaker	HOOK3 (from UniProt Q86VS8) S707A
